Positions of bridges follow the written chain, without caps; N, C: chain ends.
Molecular target: Human C3 (human, UniProt P01024 23-1663)
Assay: cell-based or functional assay

Human C3, sequence (P01024 23-1663 limits assumed): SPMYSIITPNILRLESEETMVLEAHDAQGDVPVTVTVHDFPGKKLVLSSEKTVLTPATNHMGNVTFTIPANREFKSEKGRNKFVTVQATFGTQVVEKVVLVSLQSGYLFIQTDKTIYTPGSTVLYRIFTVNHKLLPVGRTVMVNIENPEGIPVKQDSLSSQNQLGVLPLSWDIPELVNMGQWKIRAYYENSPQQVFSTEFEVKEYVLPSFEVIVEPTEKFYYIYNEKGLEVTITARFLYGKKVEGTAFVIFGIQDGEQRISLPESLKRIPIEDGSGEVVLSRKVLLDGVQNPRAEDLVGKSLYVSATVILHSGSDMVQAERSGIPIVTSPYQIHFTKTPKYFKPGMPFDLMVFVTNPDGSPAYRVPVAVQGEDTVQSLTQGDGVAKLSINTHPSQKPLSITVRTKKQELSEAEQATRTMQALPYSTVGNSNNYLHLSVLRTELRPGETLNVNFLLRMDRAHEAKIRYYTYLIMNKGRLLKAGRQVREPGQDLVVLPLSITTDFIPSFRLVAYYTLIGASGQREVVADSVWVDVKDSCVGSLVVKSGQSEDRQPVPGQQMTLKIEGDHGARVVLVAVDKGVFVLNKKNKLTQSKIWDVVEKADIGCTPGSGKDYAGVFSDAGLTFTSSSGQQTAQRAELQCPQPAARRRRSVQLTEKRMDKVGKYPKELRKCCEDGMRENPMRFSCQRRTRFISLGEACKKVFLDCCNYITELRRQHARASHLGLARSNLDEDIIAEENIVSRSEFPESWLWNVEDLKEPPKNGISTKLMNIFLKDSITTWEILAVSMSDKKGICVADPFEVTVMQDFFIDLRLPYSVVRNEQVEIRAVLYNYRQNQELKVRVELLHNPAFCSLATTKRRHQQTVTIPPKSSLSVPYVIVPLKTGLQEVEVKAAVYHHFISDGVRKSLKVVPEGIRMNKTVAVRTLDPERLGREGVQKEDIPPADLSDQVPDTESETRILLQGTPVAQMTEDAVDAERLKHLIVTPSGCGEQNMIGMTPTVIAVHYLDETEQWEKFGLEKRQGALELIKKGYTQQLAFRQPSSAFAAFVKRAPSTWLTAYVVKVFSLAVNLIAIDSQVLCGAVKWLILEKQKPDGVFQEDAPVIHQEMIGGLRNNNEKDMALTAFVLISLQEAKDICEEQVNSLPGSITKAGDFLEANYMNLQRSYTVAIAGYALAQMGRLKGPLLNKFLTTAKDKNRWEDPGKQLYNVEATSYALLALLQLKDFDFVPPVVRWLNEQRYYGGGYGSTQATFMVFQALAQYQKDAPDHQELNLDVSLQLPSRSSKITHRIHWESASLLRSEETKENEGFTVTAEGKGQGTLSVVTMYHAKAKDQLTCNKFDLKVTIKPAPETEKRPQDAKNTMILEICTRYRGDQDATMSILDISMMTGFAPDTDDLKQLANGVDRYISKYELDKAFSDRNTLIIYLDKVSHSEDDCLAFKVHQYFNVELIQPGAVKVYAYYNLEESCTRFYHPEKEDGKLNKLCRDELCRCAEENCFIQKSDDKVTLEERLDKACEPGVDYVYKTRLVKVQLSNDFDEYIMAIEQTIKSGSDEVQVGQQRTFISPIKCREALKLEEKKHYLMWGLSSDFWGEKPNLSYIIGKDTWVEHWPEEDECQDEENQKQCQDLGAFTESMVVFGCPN

Binder	IC50[nM], inhibition of hemolysis
Ac-ESEICIWQDWGEHRCT-NH2 (disulfide 5-15; SMILES CC[C@H](C)[C@@H]1NC(=O)[C@@H](NC(=O)[C@@H](NC(=O)[C@H](CCC(=O)O)NC(=O)[C@H](CO)NC(=O)[C@H](CCC(=O)O)NC(C)=O)[C@@H](C)CC)CSSC[C@@H](C(=O)N[C@H](C(N)=O)[C@@H](C)O)NC(=O)[C@H](CCCNC(=N)N)NC(=O)[C@H](Cc2c[nH]cn2)NC(=O)[C@H](CCC(=O)O)NC(=O)CNC(=O)[C@H](Cc2c[nH]c3ccccc23)NC(=O)[C@H](CC(=O)O)NC(=O)[C@H](CCC(N)=O)NC(=O)[C@H](Cc2c[nH]c3ccccc23)NC1=O) [Compound 31]	< 100 nM
Ac-SEICIWQDWGEHRCTEA-NH2 (disulfide 4-14; SMILES CC[C@H](C)[C@@H]1NC(=O)[C@@H](NC(=O)[C@@H](NC(=O)[C@H](CCC(=O)O)NC(=O)[C@H](CO)NC(C)=O)[C@@H](C)CC)CSSC[C@@H](C(=O)N[C@H](C(=O)N[C@@H](CCC(=O)O)C(=O)N[C@@H](C)C(N)=O)[C@@H](C)O)NC(=O)[C@H](CCCNC(=N)N)NC(=O)[C@H](Cc2c[nH]cn2)NC(=O)[C@H](CCC(=O)O)NC(=O)CNC(=O)[C@H](Cc2c[nH]c3ccccc23)NC(=O)[C@H](CC(=O)O)NC(=O)[C@H](CCC(N)=O)NC(=O)[C@H](Cc2c[nH]c3ccccc23)NC1=O) [Compound 32]	< 100 nM
Ac-EICIWQDWGEHRCTE-NH2 (disulfide 3-13; SMILES CC[C@H](C)[C@@H]1NC(=O)[C@@H](NC(=O)[C@@H](NC(=O)[C@H](CCC(=O)O)NC(C)=O)[C@@H](C)CC)CSSC[C@@H](C(=O)N[C@H](C(=O)N[C@@H](CCC(=O)O)C(N)=O)[C@@H](C)O)NC(=O)[C@H](CCCNC(=N)N)NC(=O)[C@H](Cc2c[nH]cn2)NC(=O)[C@H](CCC(=O)O)NC(=O)CNC(=O)[C@H](Cc2c[nH]c3ccccc23)NC(=O)[C@H](CC(=O)O)NC(=O)[C@H](CCC(N)=O)NC(=O)[C@H](Cc2c[nH]c3ccccc23)NC1=O) [Compound 33]	< 100 nM
Ac-EICIWQDWGEHRCTEGE-NH2 (disulfide 3-13; SMILES CC[C@H](C)[C@@H]1NC(=O)[C@@H](NC(=O)[C@@H](NC(=O)[C@H](CCC(=O)O)NC(C)=O)[C@@H](C)CC)CSSC[C@@H](C(=O)N[C@H](C(=O)N[C@@H](CCC(=O)O)C(=O)NCC(=O)N[C@@H](CCC(=O)O)C(N)=O)[C@@H](C)O)NC(=O)[C@H](CCCNC(=N)N)NC(=O)[C@H](Cc2c[nH]cn2)NC(=O)[C@H](CCC(=O)O)NC(=O)CNC(=O)[C@H](Cc2c[nH]c3ccccc23)NC(=O)[C@H](CC(=O)O)NC(=O)[C@H](CCC(N)=O)NC(=O)[C@H](Cc2c[nH]c3ccccc23)NC1=O) [Compound 34]	< 250 nM
Ac-EGEICIWQDWGEHRCEGE-NH2 (disulfide 5-15; SMILES CC[C@H](C)[C@@H]1NC(=O)[C@@H](NC(=O)[C@@H](NC(=O)[C@H](CCC(=O)O)NC(=O)CNC(=O)[C@H](CCC(=O)O)NC(C)=O)[C@@H](C)CC)CSSC[C@@H](C(=O)N[C@@H](CCC(=O)O)C(=O)NCC(=O)N[C@@H](CCC(=O)O)C(N)=O)NC(=O)[C@H](CCCNC(=N)N)NC(=O)[C@H](Cc2c[nH]cn2)NC(=O)[C@H](CCC(=O)O)NC(=O)CNC(=O)[C@H](Cc2c[nH]c3ccccc23)NC(=O)[C@H](CC(=O)O)NC(=O)[C@H](CCC(N)=O)NC(=O)[C@H](Cc2c[nH]c3ccccc23)NC1=O) [Compound 35]	< 500 nM
Ac-ESEICIWQDWGEHRCEGE-NH2 (disulfide 5-15; SMILES CC[C@H](C)[C@@H]1NC(=O)[C@@H](NC(=O)[C@@H](NC(=O)[C@H](CCC(=O)O)NC(=O)[C@H](CO)NC(=O)[C@H](CCC(=O)O)NC(C)=O)[C@@H](C)CC)CSSC[C@@H](C(=O)N[C@@H](CCC(=O)O)C(=O)NCC(=O)N[C@@H](CCC(=O)O)C(N)=O)NC(=O)[C@H](CCCNC(=N)N)NC(=O)[C@H](Cc2c[nH]cn2)NC(=O)[C@H](CCC(=O)O)NC(=O)CNC(=O)[C@H](Cc2c[nH]c3ccccc23)NC(=O)[C@H](CC(=O)O)NC(=O)[C@H](CCC(N)=O)NC(=O)[C@H](Cc2c[nH]c3ccccc23)NC1=O) [Compound 36]	< 250 nM
Ac-KEKICIWQDWGEHRCTEKE-NH2 (disulfide 5-15; SMILES CC[C@H](C)[C@@H]1NC(=O)[C@@H](NC(=O)[C@@H](NC(=O)[C@H](CCCCN)NC(=O)[C@H](CCC(=O)O)NC(=O)[C@H](CCCCN)NC(C)=O)[C@@H](C)CC)CSSC[C@@H](C(=O)N[C@H](C(=O)N[C@@H](CCC(=O)O)C(=O)N[C@@H](CCCCN)C(=O)N[C@@H](CCC(=O)O)C(N)=O)[C@@H](C)O)NC(=O)[C@H](CCCNC(=N)N)NC(=O)[C@H](Cc2c[nH]cn2)NC(=O)[C@H](CCC(=O)O)NC(=O)CNC(=O)[C@H](Cc2c[nH]c3ccccc23)NC(=O)[C@H](CC(=O)O)NC(=O)[C@H](CCC(N)=O)NC(=O)[C@H](Cc2c[nH]c3ccccc23)NC1=O) [Compound 37]	< 250 nM
Ac-EKGICIWQDWGEHRCTEKP-NH2 (disulfide 5-15; SMILES CC[C@H](C)[C@H](NC(=O)CNC(=O)[C@H](CCCCN)NC(=O)[C@H](CCC(=O)O)NC(C)=O)C(=O)N[C@H]1CSSC[C@@H](C(=O)N[C@H](C(=O)N[C@@H](CCC(=O)O)C(=O)N[C@@H](CCCCN)C(=O)N2CCC[C@H]2C(N)=O)[C@@H](C)O)NC(=O)[C@H](CCCNC(=N)N)NC(=O)[C@H](Cc2c[nH]cn2)NC(=O)[C@H](CCC(=O)O)NC(=O)CNC(=O)[C@H](Cc2c[nH]c3ccccc23)NC(=O)[C@H](CC(=O)O)NC(=O)[C@H](CCC(N)=O)NC(=O)[C@H](Cc2c[nH]c3ccccc23)NC(=O)[C@H]([C@@H](C)CC)NC1=O) [Compound 38]	< 250 nM
Ac-ICIWQDWGEHRCTEGK-NH2 (disulfide 2-12; SMILES CC[C@H](C)[C@H](NC(C)=O)C(=O)N[C@H]1CSSC[C@@H](C(=O)N[C@H](C(=O)N[C@@H](CCC(=O)O)C(=O)NCC(=O)N[C@@H](CCCCN)C(N)=O)[C@@H](C)O)NC(=O)[C@H](CCCNC(=N)N)NC(=O)[C@H](Cc2c[nH]cn2)NC(=O)[C@H](CCC(=O)O)NC(=O)CNC(=O)[C@H](Cc2c[nH]c3ccccc23)NC(=O)[C@H](CC(=O)O)NC(=O)[C@H](CCC(N)=O)NC(=O)[C@H](Cc2c[nH]c3ccccc23)NC(=O)[C@H]([C@@H](C)CC)NC1=O) [Compound 39]	< 100 nM
Ac-SAICIWQDWGEHRCTEG-NH2 (disulfide 4-14; SMILES CC[C@H](C)[C@H](NC(=O)[C@H](C)NC(=O)[C@H](CO)NC(C)=O)C(=O)N[C@H]1CSSC[C@@H](C(=O)N[C@H](C(=O)N[C@@H](CCC(=O)O)C(=O)NCC(N)=O)[C@@H](C)O)NC(=O)[C@H](CCCNC(=N)N)NC(=O)[C@H](Cc2c[nH]cn2)NC(=O)[C@H](CCC(=O)O)NC(=O)CNC(=O)[C@H](Cc2c[nH]c3ccccc23)NC(=O)[C@H](CC(=O)O)NC(=O)[C@H](CCC(N)=O)NC(=O)[C@H](Cc2c[nH]c3ccccc23)NC(=O)[C@H]([C@@H](C)CC)NC1=O) [Compound 42]	< 250 nM

Source: US20220306695A1, “COMPSTATIN ANALOGUES AND THEIR MEDICAL USES” (priority 2019, published 2022)
